From PMC4497506
pIC50, pKd: −log10 of the molar value.

Experiments:
[1] = molecular target: wild-type HIV-1 YU-2 Env gp120, soluble monomeric (HIV-1 YU-2) (UniProt P35961); test: SPR
[2] = molecular target: HIV-1 YU-2 gp120 W112A (HIV-1 YU-2); test: SPR
[3] = molecular target: HIV-1 YU-2 gp120 M426A (HIV-1 YU-2); test: SPR
[4] = molecular target: HIV-1 YU-2 gp120 I109A (HIV-1 YU-2); test: SPR
[5] = molecular target: HIV-1 YU-2 gp120 F210A (HIV-1 YU-2); test: SPR
[6] = molecular target: hexahistidine-tagged soluble four-domain CD4 (UniProt P01730); test: SPR
[7] = molecular target: HIV-1 YU-2 gp120 T257A (HIV-1 YU-2); test: ITC
[8] = molecular target: HIV-1 YU-2 gp120 S375A (HIV-1 YU-2); test: ITC

peptide 2 (peptide 1 with Trp replaced by Tyr)
pIC50 [1]: 5.52 | pIC50 [2]: < 4.30 | pIC50 [3]: 5.29 | pIC50 [4]: 5.51 | pIC50 [5]: 5.39

HIV-1 YU-2 gp120 S375A (natural protein)
pKd [6]: 8.21

HIV-1 YU-2 gp120 S375W (natural protein)
pKd [6]: 8.43

HIV-1 YU-2 gp120 T257R (natural protein)
pKd [6]: 7.68

peptide 4 (peptide 1 with N-methylated indole at Trp 6)
dH [7]: -46 kJ/mol | stoichiometry N [7]: 1.15 | dH [8]: -38.9 kJ/mol | stoichiometry N [8]: 1.13

peptide 1 (sequence-minimized peptide triazole Ile-Asn-Asn-Ile-X-Trp, X = ferrocenyl-triazolePro)
dH [8]: -38.1 kJ/mol | pIC50 [5]: 6.70

HIV-1 YU-2 gp120 W112A (natural protein)
pKd [6]: 7.02 | pKd (mAb F105): 7.08

HIV-1 YU-2 gp120 T257A (natural protein)
pKd [6]: 7.99

HIV-1 YU-2 gp120 F210A (natural protein)
pKd [6]: 6.64

HIV-1 YU-2 gp120 S375H (natural protein)
pKd [6]: 8.28

HIV-1 YU-2 gp120 I109A (natural protein)
pKd [6]: 8.17

HIV-1 YU-2 gp120 M426A (natural protein)
pKd [6]: 7.23
